The supplement of paper PMC7877785
± gives the uncertainty stated by the source.

Test: self-splicing fitness, log relative to wild type (ln ratio); higher = more splicing; Tetrahymena group I intron in knt gene, E. coli kanamycin selection, DiMSum; sequences stand for … in CUCUCU…GGAGGGAAAAGUUAUCAGGCAUGCACCUGGUAGCUAGUCUUUAAACCAAUAGAUUGCAUCGGUUUAAAAGGCAAGACCGUCAAAUUGCGGGAAAGGGGUCAACAGCCGUUCAGUACCAAGUCUCAGGGGAAACUUUGAGAUGGCCUUGCAAAGGGUAUGGUAAUAAGCUGACGGACAUGGUCCUAACCACGCAGCCAAGUCCUAAGUCAACAGAUCUUCUGUUGAUAUGGAUGCAGUUCACAGACUAAAUGUCGGUCGGGGAAGAUGUAUUCUUCUCAUAAGAUAUAGUCGGACCUCUCCUUAAUGGGAGCUAGCGGAUGAAGUGAUGCAACACUGGAGCCGCUGGGAACUAAUUUGUAUGCGAAAGUAUAUUGAUUAGUUUUGGAGUACUCGUGGUCG
How it was run: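 DiMSum derived fitness as the error-weighted combination of fold changes across replicates, kanamycin versus no kanamycin, normalised to wild type. E. coli BL21(DE3) held the library, which randomised all eight P1ex-region intron nucleotides within the knt kanamycin-resistance gene on pET-22b(+). Six replicate transformations grew overnight at 37°C or 30°C on LB agar with or without 25 μg/mL kanamycin, also containing 100 μg/mL carbenicillin, 50 μM IPTG and 0.2% rhamnose, and pooled colonies were amplicon-sequenced on an Illumina HiSeq 2500.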

With UUACAGCAAUAUUACGAGCG the “self-splicing fitness (ln)” value (30 °C) was -0.688 ± 0.088 and the “self-splicing fitness (ln)” value (37 °C) was -0.631 ± 0.096.

For GCGAAGCAAUAUUACGGAGU, the “self-splicing fitness (ln)” value (30 °C) was -3.66 ± 0.2 and the “self-splicing fitness (ln)” value (37 °C) was -3.43 ± 0.42.

In the case of UUACAGCAAUAUUACGAUAA, the “self-splicing fitness (ln)” value (30 °C) is reported as -0.0512 ± 0.1 and the “self-splicing fitness (ln)” value (37 °C) is reported as -0.232 ± 0.11.

With CAAGAGCAAUAUUACGUCGC the “self-splicing fitness (ln)” value (30 °C) was -4.54 ± 0.38 and the “self-splicing fitness (ln)” value (37 °C) was -2.38 ± 0.29.

For UUCCAGCAAUAUUACGGGGC, the “self-splicing fitness (ln)” value (30 °C) was -3.09 ± 0.32 and the “self-splicing fitness (ln)” value (37 °C) was -2.82 ± 0.34.

In the case of UGAUAGCAAUAUUACGAAGG, the “self-splicing fitness (ln)” value (30 °C) is reported as -2.96 ± 0.15 and the “self-splicing fitness (ln)” value (37 °C) is reported as -2.26 ± 0.2.

With GGAGAGCAAUAUUACGCGCU the “self-splicing fitness (ln)” value (30 °C) was -2.69 ± 0.25 and the “self-splicing fitness (ln)” value (37 °C) was -1.67 ± 0.28.

For UCAGAGCAAUAUUACGGUCU, the “self-splicing fitness (ln)” value (30 °C) was -1.95 ± 0.2 and the “self-splicing fitness (ln)” value (37 °C) was -2.43 ± 0.39.

For CACCAGCAAUAUUACGAGCG, the “self-splicing fitness (ln)” value (30 °C) was -0.154 ± 0.066 and the “self-splicing fitness (ln)” value (37 °C) was 0.288 ± 0.086.

In the case of UAUAAGCAAUAUUACGACAG, the “self-splicing fitness (ln)” value (30 °C) is reported as -0.587 ± 0.11 and the “self-splicing fitness (ln)” value (37 °C) is reported as -0.0617 ± 0.15.

For UAGCAGCAAUAUUACGCUGU, the “self-splicing fitness (ln)” value (30 °C) was -3.59 ± 0.25 and the “self-splicing fitness (ln)” value (37 °C) was -3.42 ± 0.35.

In the case of CAUCAGCAAUAUUACGCAAC, the “self-splicing fitness (ln)” value (37 °C) is reported as -1.59 ± 0.28.

For UUUCAGCAAUAUUACGUGUU, the “self-splicing fitness (ln)” value (30 °C) was -3.42 ± 0.13 and the “self-splicing fitness (ln)” value (37 °C) was -2.87 ± 0.14.

In the case of AGAUAGCAAUAUUACGUUAC, the “self-splicing fitness (ln)” value (30 °C) is reported as -2.05 ± 0.48.

With AUGGAGCAAUAUUACGAUUA the “self-splicing fitness (ln)” value (30 °C) was -1.13 ± 0.36.

With CACUAGCAAUAUUACGGGCU the “self-splicing fitness (ln)” value (30 °C) was -4.24 ± 0.39 and the “self-splicing fitness (ln)” value (37 °C) was -3.52 ± 0.33.

For UAAGAGCAAUAUUACGAUCU, the “self-splicing fitness (ln)” value (30 °C) was -2.51 ± 0.24 and the “self-splicing fitness (ln)” value (37 °C) was -2.86 ± 0.36.

In the case of GGCAAGCAAUAUUACGCCCC, the “self-splicing fitness (ln)” value (37 °C) is reported as -1.27 ± 0.35.

For CUCAAGCAAUAUUACGCGGA, the “self-splicing fitness (ln)” value (30 °C) was -3.12 ± 0.25 and the “self-splicing fitness (ln)” value (37 °C) was -4.56 ± 0.31.

For ACUGAGCAAUAUUACGGUGU, the “self-splicing fitness (ln)” value (30 °C) was -3.14 ± 0.13 and the “self-splicing fitness (ln)” value (37 °C) was -1.41 ± 0.1.

In the case of UCAAAGCAAUAUUACGAGUU, the “self-splicing fitness (ln)” value (30 °C) is reported as -4.25 ± 0.31 and the “self-splicing fitness (ln)” value (37 °C) is reported as -2.28 ± 0.19.

In the case of UCUAAGCAAUAUUACGUUGG, the “self-splicing fitness (ln)” value (30 °C) is reported as -1.6 ± 0.064 and the “self-splicing fitness (ln)” value (37 °C) is reported as -1.37 ± 0.086.

For CUACAGCAAUAUUACGUUGC, the “self-splicing fitness (ln)” value (30 °C) was -3.67 ± 0.23 and the “self-splicing fitness (ln)” value (37 °C) was -2.82 ± 0.21.

For GAAUAGCAAUAUUACGCAGG, the “self-splicing fitness (ln)” value (30 °C) was -2.6 ± 0.2 and the “self-splicing fitness (ln)” value (37 °C) was -2.28 ± 0.21.

With UGGGAGCAAUAUUACGUAGG the “self-splicing fitness (ln)” value (30 °C) was -3.24 ± 0.31 and the “self-splicing fitness (ln)” value (37 °C) was -1.93 ± 0.32.

In the case of GACGAGCAAUAUUACGUUUA, the “self-splicing fitness (ln)” value (30 °C) is reported as -2.06 ± 0.14 and the “self-splicing fitness (ln)” value (37 °C) is reported as -0.752 ± 0.12.

For CCGAAGCAAUAUUACGAGGU, the “self-splicing fitness (ln)” value (30 °C) was -3.79 ± 0.2 and the “self-splicing fitness (ln)” value (37 °C) was -2.9 ± 0.26.

With ACGUAGCAAUAUUACGAACC the “self-splicing fitness (ln)” value (30 °C) was -1.44 ± 0.11 and the “self-splicing fitness (ln)” value (37 °C) was -0.279 ± 0.15.

With CACCAGCAAUAUUACGGUUC the “self-splicing fitness (ln)” value (30 °C) was -2.02 ± 0.065 and the “self-splicing fitness (ln)” value (37 °C) was -1.25 ± 0.085.

For CGGCAGCAAUAUUACGGCUC, the “self-splicing fitness (ln)” value (30 °C) was -0.945 ± 0.11 and the “self-splicing fitness (ln)” value (37 °C) was -0.28 ± 0.15.

For GUGAAGCAAUAUUACGUGCG, the “self-splicing fitness (ln)” value (30 °C) was -0.0545 ± 0.077 and the “self-splicing fitness (ln)” value (37 °C) was 0.038 ± 0.094.

For GGAGAGCAAUAUUACGAGAG, the “self-splicing fitness (ln)” value (30 °C) was -3.07 ± 0.25 and the “self-splicing fitness (ln)” value (37 °C) was -2.31 ± 0.33.

For CAUCAGCAAUAUUACGGCGC, the “self-splicing fitness (ln)” value (30 °C) was -2.95 ± 0.13 and the “self-splicing fitness (ln)” value (37 °C) was -0.694 ± 0.15.

For GCGCAGCAAUAUUACGCAGA, the “self-splicing fitness (ln)” value (30 °C) was -3.32 ± 0.22 and the “self-splicing fitness (ln)” value (37 °C) was -2.5 ± 0.24.

In the case of UGCAAGCAAUAUUACGCGAA, the “self-splicing fitness (ln)” value (30 °C) is reported as -2.03 ± 0.1 and the “self-splicing fitness (ln)” value (37 °C) is reported as -0.581 ± 0.083.

In the case of UGGGAGCAAUAUUACGCUCA, the “self-splicing fitness (ln)” value (37 °C) is reported as -2.72 ± 0.28.

In the case of GGUAAGCAAUAUUACGCAAA, the “self-splicing fitness (ln)” value (30 °C) is reported as -2.37 ± 0.22 and the “self-splicing fitness (ln)” value (37 °C) is reported as -1.15 ± 0.17.

For AACCAGCAAUAUUACGAGUC, the “self-splicing fitness (ln)” value (30 °C) was -1.82 ± 0.1 and the “self-splicing fitness (ln)” value (37 °C) was -0.825 ± 0.11.

With UGGAAGCAAUAUUACGGAUG the “self-splicing fitness (ln)” value (30 °C) was -0.948 ± 0.098 and the “self-splicing fitness (ln)” value (37 °C) was -0.832 ± 0.12.

In the case of UGUAAGCAAUAUUACGACUC, the “self-splicing fitness (ln)” value (30 °C) is reported as -1.52 ± 0.19 and the “self-splicing fitness (ln)” value (37 °C) is reported as -0.632 ± 0.25.
